According to the nanobody polyreactivity screen of Harvey et al. (2022):

Assay: yeast display, Sf9 membrane polyspecificity reagent, FACS + sequencing; frameworks hold sequencing errors
How it was run: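 A synthetic nanobody library was expressed on Saccharomyces cerevisiae BJ5465 by galactose induction for 36–48 hours. The library was stained for 1 hour at 4 °C with 10% biotinylated, detergent-solubilized Sf9 membrane reagent and enriched with streptavidin microbeads before FACS. Low and high (top ~1%) gates were set on anti-HA fluorescence for expression and streptavidin fluorescence for reagent binding, and each polyreactivity label reflects the gate of origin.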

| Sequence | polyreactivity (PSR sort gate) |
| --- | --- |
| QVQLVESGGGLVQAGGSLRLSCAASGNTFLRNTMGWYRQAPGTERELVAAISWGGGTTYYADSVKGRFTISRDNAKNTVYLQMNILKPEDTAVYYCNARYYSRRGNSWGQGTQVTVSS | high polyreactivity |
| QVQLVESGGGLVQAGGSLRLSCAASGNTFNANAMGWYRQAPGKERELVAVISANGGRTYYADSVKGRFTISRDNAKNTVYLQMNSLKPEDTAVYYCATGRYGGQGYPFYYWGQGTQVTVSS | low polyreactivity |
| QVQLVESGGGLVQAGGSLRLSCAASGNTFNPNAMGWYRQAPGKERELVAVIRFRGGSTYYADSVKGRFTISRDNAKNTVYLQMNSLKPEDTAVYYCNVYRGRYLYAWRPRGYWGQGTQVTVSS | high polyreactivity |
| QVQLVESGGGLVQAGGSLRLSCAASGNTFNSYAMGWYRQAPGKERELVAAISSSTGRTYYADSVKGRFTISRDNAKNTVYLQMNSLKPEDTAVYYCNAYLYLSRNGYWGQGTQVTVSS | high polyreactivity |
| QVQLVESGGGLVQAGGSLRLSCAASGNTFPAYAMGWYRQAPGTGGELVATISWSTGSTNYADSVKGRFTISRDNAKNTVYLQMNSLKPEDTAVYYCNKRYPSDQMDYWGQGTQVTVSS | low polyreactivity |
| QVQLVESGGGLVQAGGSLRLSCAASGNTFPPNAMGWYRQAPGKERELVAAISWSGDSTYYADSVKGRFTISRDYAKNTVYLQMYSLKPEDTAVYYCAAAIFGEYEYWGQGTQVTVSS | low polyreactivity |
| QVQLVESGGGLVQAGGSLRLSCAASGNTFPSYAMGWYRQAPGKERQLVAAITSGGRTYYADSVKGRFTISRDNAKNTVYLQMNSLKPEDTAVYYCAADWVVRYPWYRYYYWGPGTQVTVSS | high polyreactivity |
| QVQLVESGGGLVQAGGSLRLSCAASGNTFRWYVMGWYRQAPGKERELVAAITSSGSTTYYADSVKGRFTISRDNAKNTVYLQMNSLKPEDTAVYYCAARNYGPYDYWGQGTQVTVSS | low polyreactivity |
| QVQLVESGGGLVQAGGSLRLSCAASGNTFSPYGMGWYRQAPGKERELVAGITISDDSTYYADSVKGRFTISRDNAKNTVYLQMNSLKPEDTAVYYCNARYLSWYFKYLYDYWGQGTQVTVSS | low polyreactivity |
| QVQLVESGGGLVQAGGSLRLSCAASGNTFTFYAMGWYRQAPGKERELVASITGRGGSTYYADSVKGRFTISRDNAKNTVYLQMNSLKPEDTAVYYCNADYNSYRYRPPTTRDYWGQGTQVTVSS | low polyreactivity |
| QVQLVESGGGLVQAGGSLRLSCAASGNTFVRYDMGWYRQAPGKEREFVAAITASGGSTYADSVKGRFTISRDNAKNTVYLQMNSLKPEDTAVYYCNAGNSSTGVDRYDYWGQGTQVTVSS | low polyreactivity |
| QVQLVESGGGLVQAGGSLRLSCAASGNTFVSNAMGWYRPAPGKERELVAAISSTGNTNYADSVKGRFTISRDNAKNTDYLQMNSLKPEDTAVYYCAKGDKRAYVAYKEGSWGQGTQVTVSS | low polyreactivity |
| QVQLVESGGGLVQAGGSLRLSCAASGNTFVSNARGWYRQAPGKERELVAAIDSGGSTNYADSVKGRFTISRDNAKNTVYLQMNSLKPEDTAVYYCNRTSVYYYYWGQGTQVTVSS | low polyreactivity |
| QVQLVESGGGLVQAGGSLRLSCAASGNTFVTNDMGWYRQAPRKERELVADISWGGASTYYADSVKGRFTISRDNAKNTVYLQMNSLIPEDTAVYYCYATDDITYTYSYDYWGQGTQVTVSS | low polyreactivity |
| QVQLVESGGGLVQAGGSLRLSCAASGNTFWFYGMGWYRQAPGKERELVAAITSGGSTDYADSVKWRFTISRDNAKNTVYLQMNSLKPEDTAVYYCAAEPVAYYGSSYGYWGQGTQVTVSS | low polyreactivity |
| QVQLVESGGGLVQAGGSLRLSCAASGNTFWSYAMGWYRQAPGKERELVAAISFSGGSTNYADSVKGRFTISRDNAKNTVYLQMNSLKPEDTAVYYCAAYFYAPLTYYSWYDYWGQGTQVTVSS | high polyreactivity |
| QVQLVESGGGLVQAGGSLRLSCAASGNTFWSYAMGWYRQAPGNERELVAAITQRGGSTYYADSVKGRFTISRDNAKNTVYLQMNSLKPEDTAVYYCAADTSYKGDYWGQGTQVTVSS | high polyreactivity |
| QVQLVESGGGLVQAGGSLRLSCAASGNTFWYNAMGWYRQSPGKERELVAAISYSGGGTYYADSVKGRFTISRDNAKNTVYLQMNSLKPEDTAVYYCAADTLQRAFVLNDYWGQGTQVTVSS | low polyreactivity |
| QVQLVESGGGLVQAGGSLRLSCAASGNTFYAYAMGWYRQAPGKERELVAAIARGGNTYYADSVKGRFTISRDNAKNTVYLQMNSLKPEDTAVYYCNAYYPIRSSPYGYYYWGQGTQVTVSS | high polyreactivity |
| QVQLVESGGGLVQAGGSLRLSCAASGNTFYAYTMGLYIQAPGKERELVAAISSDGSTNYADSVKGRFTISRDNAKNTVYLQMNSLKPEDTAVYYCAVTLEVSTVRDYDYWGQGTQVTVSS | low polyreactivity |
| QVQLVESGGGLVQAGGSLRLSCAASGNTFYGYAMGWYRQAPGKERELVASITLSGDSTYYSDSVKGRFTISRDNAKNTVYLQMNSLKPEDTAGYYCAFDGYWYGGIFYYGGQGTQVTVSS | low polyreactivity |
| QVQLVESGGGLVQAGGSLRLSCAASGNTFYINAMGWYRQAPGKERELVAAINYSGDSTYADSVKGRFTITRDNAKNTFYLQMNSLKPEDTAVYYCAADTGWYDDWTHDYWGHGTQVTVSS | low polyreactivity |

| Sequence | polyreactivity (PSR sort gate) |
| --- | --- |
| QVQLVESGGGLVQAGGSLRLSCAASGNTFYIYAMGWYRQAPGKERELVAAISRGGGSTYYAESVKGRFTISRDNAMNTVYLQLNSLKPEDTAVYYCAADYYYSRYDYWGQGTQVTVSS | high polyreactivity |
| QVQLVESGGGLVQAGGSLRLSCAASGNTFYKYAMRWYRQAPGKERELVADISWSGGSTYYADSVKGRFTISRDNAKNTVYLQMNSLKPEDTAVYYCNADTPVWDGHAYPVDYWGQGTQVTVSS | low polyreactivity |
| QVQLVESGGGLVQAGGSLRLSCAASGNTFYLYAMGWYRKAPGKERELVASITGGTRTNYADSVKGRFTISRDNAKNTVYLQMNSLKPEDTAVYYCAVRYYWRRMNYWGQGTQVTVSS | high polyreactivity |
| QVQLVESGGGLVQAGGSLRLSCAASGNTFYNVYAMGWYRQATGKERELVAAITARGSTYADSVKGRFTISRDNAKNTVYLQMNSLKPEDNAVYYGATRSSWLYRGLYYNGFNYWGQGTQVTVSS | high polyreactivity |
| QVQLVESGGGLVQAGGSLRLSCAASGNTFYPKDMGWYRQAPGKERELVAAITTNDGDTYYADSVKGRFTISRDNAKNTVYLQMNRLKPEDTAVYYCAADSGSTSEYEYWGQGTQVTVSS | low polyreactivity |
| QVQLVESGGGLVQAGGSLRLSCAASGNTFYPYAMGWYRQAPGKERELVAAITSSGGSTYYADSVNGRFTISRDNAKNTVYLQMNSLKPEDTAVYYCAAYIYFLGMDYWGQGTQVTVSS | low polyreactivity |
| QVQLVESGGGLVQAGGSLRLSCAASGNTFYRNAMGWYRQAPGKERELVAAITFSTGRTYYADSVKGRFTISRDNAKNTVYLQLNSLKPEDTAVYYCAAFYSGGDYWGQCTQVTVSS | high polyreactivity |
| QVQLVESGGGLVQAGGSLRLSCAASGNTFYYAMGWYTQAPGKERELVASIRTGGSTNYADSVKGRFTISRDNAKNTVYLQMNSLKPEDTAVYYCNRDGTYSHTGWDYWRPYEYWGQGTQVTVSS | low polyreactivity |
| QVQLVESGGGLVQAGGSLRLSCAASGNTIFAYVMGWYRQAAGKEREFVAAISRRDGRTYYADSVKGRFTISRDNAKNTVYLQMNSLKPEDTAVYYCNAQRHFWHLYAPSSFDYWGQGTQVTVSS | low polyreactivity |
| QVQLVESGGGLVQAGGSLRLSCAASGNTINFYAMGWYRQAPGKEREMVAAISSGGSTNYADSVKGRFTISRDNAKNTVYLQMNSLKPEDSAVYYCAKDVWYLVYYHWKSNRVWQYDYWGQGTQVTVSS | low polyreactivity |
| QVQLVESGGGLVQAGGSLRLSCAASGNTIVTNTMGWYRQAPGKERELVAAIDSGGDTYYADSVKGRFTISRDNAKNTVYLQMNSLKPEDTAVYYCAAVGDPNYFSNRRYEYWGQGTQVTVSS | low polyreactivity |
| QVQLVESGGGLVQAGGSLRLSCAASGNTLPQNAMGWYRQAPGKERELVAAISRSGGSTYYADSVKGRFTISRDNAKNTVYLQMNSLKPEDTAVYYCAAKLTVSGYRYGYWGQGTQVTVSS | high polyreactivity |
| QVQLVESGGGLVQAGGSLRLSCAASGNTLRTYGMGWYRQAPGKEREFVAAITYSGGSTYYADSVKGRFTISRDNAKNTVYLQMNSLKPEDTAVYYCAARYRSHYRRITPYDSWGQGTQVTVSS | high polyreactivity |
| QVQLVESGGGLVQAGGSLRLSCAASGNTLSYYTMGWYRQAPGKERELVAAISRGGGSTYYADSVKGRFTISRDNSMNTVYLHMNSLKPEDTAVYYCAAEAYRYAWYDYWGQGTQVTVSS | high polyreactivity |
| QVQLVESGGGLVQAGGSLRLSCAASGNTLYQYAMGWYRQAPGKERELVAAISGIGDSTYYADSVKGRFTISRDNAKNTVYLQMNSLKPEDTAVYYCAADGEYRYDLEYESWGQGTQVTVSS | low polyreactivity |
| QVQLVESGGGLVQAGGSLRLSCAASGNTLYSYAMGWYRQAPGKERELVAAITKSGGRTYYADSVKGRFTISRDNAKNTVYLQMNSLKPEDTADYYCNAVFLPTYHFDYWGQGTQVTVSS | high polyreactivity |
| QVQLVESGGGLVQAGGSLRLSCAASGNTSAVYAMGWYRQAPGKERELVASITWSDGITYYADSVKGRFTISRDNAKNTVYLQMNSLKPEDTAVYYCAKSTLYSVEYDYWGEGTQVTVSS | low polyreactivity |
| QVQLVESGGGLVQAGGSLRLSCAASGNTVKGYAMGWYRQAPGKERELVAAISWSGSSTYYADSVKGRFTISRDNAKNTVYLQMNSLKPEDTAVYYCNRKYLGRYASVYGYGYWGQGTQVTVSS | high polyreactivity |
| QVQLVESGGGLVQAGGSLRLSCAASGPMFTSNAMGWYRQAPGKERELVAAISRRGTRTYYADSVKGRFTISRDNAKNTVYLQMNSLKPEDTAVYYCAATTGEQEDYWGQGTQVTVSS | high polyreactivity |
| QVQLVESGGGLVQAGGSLRLSCAASGPTFDVYAMGWYRQAPGKERELVATISWRGTSTYYADSVKGRFTISRDNAKNTVYLQMNSLKPEDTAVYYCAAEVYYEYYYWRYYWGQGTQVTVSS | high polyreactivity |
| QVQLVESGGGLVQAGGSLRLSCAASGPTFGVNAMGWYRQAPGKERELVAVISSTGSTNYADSVKGRFTISRDNAKNTVYLQMNSLKPEDTAVYYCAVGPNSVGNRSYGFDYWGQGTQVTVSS | low polyreactivity |
